This note sets out measurements from US5972599, “High affinity nucleic acid ligands of cytokines” (NeXstar Pharmaceuticals, Inc.).

Bounds are passed on as bounds.

For data set [1], the target named is T1, IFN-gamma (Homo sapiens, UniProt P01579 P01579:24-161). As to the kind of experiment: filter; biphasic 3.2/314 nM. The settings on record: tags: Genzyme (Cambridge MA); Upstate Biotechnology for early SELEX rounds; chain copies: 2 inferred. As for the experimental part:
(§1) The determination of equilibrium dissociation constants (Kds) for RNA pools was made subsequent to rounds 5, 8, 12, and 17 to monitor the progress of each SELEX. The Kds of RNA pools for mouse IFN-gamma (Genzyme Inc., Cambridge Mass.) were also determined after rounds 8 and 17. Kds were determined for individual ligands after cloning and sequencing of RNA pools and truncations (described below). Nitrocellulose filter binding was used to determine Kds as follows: filter discs were placed into a vacuum manifold and wetted with 5 ml of mPBS buffer. ^32P-labeled-RNA was incubated with serial dilutions of IFN-gamma in binding buffer for 5–10 min at 37° C. to allow binding to occur. […] The filter discs were dried and counted in a liquid scintillation counter (Beckmann Instruments, Palo Alto Calif.). Equilibrium dissociation constants were determined by least square fitting of the data points using the Kaleidagraph™ graphics program (Synergy Software, Reading Pa.). […] Biphasic binding constants were calculated according to standard procedures. Kds were determined by least square fitting of the data points using the Kaleidagraph™ graphics program.
(§2) The Kds of individual RNAs within each group were determined by nitrocellulose filter binding as described above. The Kds were determined using either a monophasic or biphasic least squares fit of the data.

For data set [2], the target named is T1, IFN-gamma. Description: filter; full-length. The settings on record: tags: Genzyme (Cambridge MA); Upstate Biotechnology for early SELEX rounds; chain copies: 2 inferred. As for the experimental part:
as §1, §2

Data set [3] deals with T1, IFN-gamma. Description: filter; biphasic 9.3/232 nM. The settings on record: tags: Genzyme (Cambridge MA); Upstate Biotechnology for early SELEX rounds; chain copies: 2 inferred. The method, then:
as §1, §2

The target in data set [4] is T1, IFN-gamma. As to the kind of experiment: filter; printed as '12 4 nM', decimal uncertain. The settings on record: tags: Genzyme (Cambridge MA); Upstate Biotechnology for early SELEX rounds; chain copies: 2 inferred. As for the experimental part:
The determination of equilibrium dissociation constants (Kds) for RNA pools was made subsequent to rounds 5, 8, 12, and 17 to monitor the progress of each SELEX. The Kds of RNA pools for mouse IFN-gamma (Genzyme Inc., Cambridge Mass.) were also determined after rounds 8 and 17. Kds were determined for individual ligands after cloning and sequencing of RNA pools and truncations (described below). Nitrocellulose filter binding was used to determine Kds as follows: filter discs were placed into a vacuum manifold and wetted with 5 ml of mPBS buffer. ^32P-labeled-RNA was incubated with serial dilutions of IFN-gamma in binding buffer for 5–10 min at 37° C. to allow binding to occur. Binding mixes were centrifuged as described above to remove aggregates, aspirated through the filter discs, and then immediately washed with 5 ml mPBS buffer. The filter discs were dried and counted in a liquid scintillation counter (Beckmann Instruments, Palo Alto Calif.). Equilibrium dissociation constants were determined by least square fitting of the data points using the Kaleidagraph™ graphics program (Synergy Software, Reading Pa.). […] Biphasic binding constants were calculated according to standard procedures. Kds were determined by least square fitting of the data points using the Kaleidagraph™ graphics program.

Data set [5] addresses T2, TNF-alpha (Homo sapiens, UniProt P01375 P01375:77-233). As to the kind of experiment: filter; DPBS; class I. The settings on record: tags: Genzyme or R&D Systems; chain copies: 3 inferred.
Data set [6] has as its target T2, TNF-alpha. Description: competition; 125I-hTNFa binding to U937 cells, 4 C. The settings on record: tags: Genzyme or R&D Systems; chain copies: 3 inferred. The method, then:
(§3) A receptor binding competition assay was used to determine the bioactivity of the RNA ligands. ^125I labelled hTNFα at 0.1 nM was incubated in 50 µl of binding medium (PBS with 0.5 mM Mg^++, 0.2% BSA, 0.02% sodium azide, 1 U/µl RNasin) for 15 min at 4° C. with serially diluted competitors at 10^-4 to 10^-11 M, and 1×10^4/µl U937 cells. Duplicate aliquots were subsequently removed, centrifuged through 2:1 dibutyl-phthalate:dinonyl-phthalate mixture to separate free and bound ^125I labelled hTNFα, and the radioactivity in the pellet was measured on a gamma counter. Nonspecific binding was determined by inclusion of a 200-fold molar excess of unlabeled TNF.

Data set [7] concerns the target T3, IL-4 (Homo sapiens, UniProt P05112 P05112:25-153). Description: filter; full-length; mPBS 1 mM Mg, 0.01% HSA, 37 C. The settings on record: tags: R&D Systems.
Data set [8] has as its target T1, IFN-gamma. As to the kind of experiment: competition; 30 pM 125I-IFN-gamma, A549 cells. The settings on record: tags: Genzyme (Cambridge MA); Upstate Biotechnology for early SELEX rounds; chain copies: 2 inferred.
Procedure: The cells were washed 3 times with PBS. […] Incubations were carried out at 4° C. with shaking for 2 hrs. The cells were washed 2 times with cold PBS to remove free IFN and detached with 0.5% SDS.
Data set [9] has as its target T1, IFN-gamma. As to the kind of experiment: filter; biphasic 2.7/103 nM. The settings on record: tags: Genzyme (Cambridge MA); Upstate Biotechnology for early SELEX rounds; chain copies: 2 inferred. The method, then: as §1, §2
Data set [10] concerns the target T3, IL-4. Description: filter; truncate. The settings on record: tags: R&D Systems.
Data set [11] has as its target T3, IL-4. As to the kind of experiment: filter; full-length. The settings on record: tags: R&D Systems.
Data set [12] has as its target T3, IL-4. Description: competition; 0.7 nM 125I-IL-4, H-9 cells. The settings on record: tags: R&D Systems.
Procedure: Following incubation, the tubes were spun (150×g, 5 min, 4° C.) and the supernatant was aspirated. The cell pellet was resuspended in 200 μl RPMI-HSA. 100 μl aliquots were centrifuged through a cushion of an equal volume of phthalate oils (dibutyl/dioctyl, 1:1 v/v). The tube was rapidly frozen in dry ice/ethanol and the tip containing the cell pellet was cut off and placed in a vial for gamma counting.
The target in data set [13] is T1, IFN-gamma. As to the kind of experiment: filter; biphasic 4.4/716 nM. The settings on record: tags: Genzyme (Cambridge MA); Upstate Biotechnology for early SELEX rounds; chain copies: 2 inferred. As for the experimental part: as §1, §2
Data set [14] has as its target T1, IFN-gamma. As to the kind of experiment: filter; biphasic 1.8/750 nM. The settings on record: tags: Genzyme (Cambridge MA); Upstate Biotechnology for early SELEX rounds; chain copies: 2 inferred. The method, then: as §1, §2
In data set [15] the target is T2, TNF-alpha. Description: filter; class II; clone 28A printed with the same sequence but no Kd. The settings on record: tags: Genzyme or R&D Systems; chain copies: 3 inferred.
For data set [16], the target named is T2, TNF-alpha. As to the kind of experiment: FP; no value shown, Kd above 1 uM per footnote; filter binding, DPBS. The settings on record: tags: Genzyme or R&D Systems; chain copies: 3.
In data set [17] the target is T1, IFN-gamma. Description: filter; biphasic 8.8/384 nM. The settings on record: tags: Genzyme (Cambridge MA); Upstate Biotechnology for early SELEX rounds; chain copies: 2 inferred. The method, then: as §1, §2
The target in data set [18] is T1, IFN-gamma. As to the kind of experiment: filter; biphasic 6.8/320 nM; mPBS 1 mM Mg, 0.01% HSA, 37 C. The settings on record: tags: Genzyme (Cambridge MA); Upstate Biotechnology for early SELEX rounds; chain copies: 2 inferred. As for the experimental part: as §1, §2
Data set [19] concerns the target T3, IL-4. Description: filter; specificity control. The settings on record: tags: R&D Systems.
Data set [20] has as its target T1, IFN-gamma. Description: filter; specificity control. The settings on record: tags: Genzyme (Cambridge MA); Upstate Biotechnology for early SELEX rounds; chain copies: 2 inferred.
In the next data set the target is IL-10 (Homo sapiens, UniProt P22301 P22301:19-178). Description: filter; TEM buffer, 37 C. The settings on record: tags: Bachem or R & D Systems; chain copies: 2 inferred.
Chain of IL-10 (P22301 19-178, one chain of several): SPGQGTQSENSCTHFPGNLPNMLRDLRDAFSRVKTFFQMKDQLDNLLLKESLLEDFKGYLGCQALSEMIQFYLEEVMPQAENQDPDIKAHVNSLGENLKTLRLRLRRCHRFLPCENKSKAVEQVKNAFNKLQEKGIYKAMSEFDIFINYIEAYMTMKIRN
Data set [21] addresses T2, TNF-alpha. Description: filter; orphan. The settings on record: tags: Genzyme or R&D Systems; chain copies: 3 inferred.
The target in data set [22] is T2, TNF-alpha. Description: competition; U937 cells. The settings on record: tags: Genzyme or R&D Systems; chain copies: 3 inferred. The method, then: as §3

T1 sequence (P01579 24-161, one chain of several): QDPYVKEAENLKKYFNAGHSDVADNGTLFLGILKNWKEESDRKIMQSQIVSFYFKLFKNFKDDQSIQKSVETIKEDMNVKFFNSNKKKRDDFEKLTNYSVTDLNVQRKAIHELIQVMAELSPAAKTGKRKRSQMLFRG
T2 sequence (P01375 77-233, one chain of several): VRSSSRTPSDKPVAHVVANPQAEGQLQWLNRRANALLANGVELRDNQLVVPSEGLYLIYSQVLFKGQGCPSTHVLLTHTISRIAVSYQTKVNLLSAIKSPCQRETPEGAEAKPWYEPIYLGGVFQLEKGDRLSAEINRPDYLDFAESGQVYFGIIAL
T3 sequence (P05112 25-153, one chain of several): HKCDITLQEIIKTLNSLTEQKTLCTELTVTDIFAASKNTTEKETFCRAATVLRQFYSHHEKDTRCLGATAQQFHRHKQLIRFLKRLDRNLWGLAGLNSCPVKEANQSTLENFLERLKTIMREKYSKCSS
Procedure for IL-10: Internally-labeled RNA transcripts were prepared by including [γ-^32P]ATP in T7 RNA polymerase transcription reactions. Full-length transcripts were purified on 8% denaturing polyacrylamide gels to ensure size homogeneity. Gel-purified RNA was diluted to a concentration of ~5 nM in TEM buffer, heated to 80° C. then chilled on ice to facilitate secondary structure formation. RNA concentrations were kept lower than 100 pM in binding reactions. Briefly, equal amounts of RNA were incubated with varying amounts of IL-10 in 50 µL of TEM buffer for 10 min at 37° C. RNA-protein mixtures were passed through pre-wet nitrocellulose filters (0.2µ) and the filters were immediately washed with 5 mL of binding buffer. Radioactivity retained on filters was determined by liquid scintillation counting. The quantities of RNA bound to filters in the absence of protein was determined and used for background correction. The percentage of input RNA retained on each filter was plotted against the corresponding log protein concentration. The nonlinear least square method to obtain the dissociation constant (K_d).

B1: IFN-gamma 2'F-6 (ssRNA)
RNA: GGGAGGACGAUGCGGUGGAGUUUUAAUCUUACUUCCUACUCUUGCUCCACUGGGUCAGACGACUCGCCCGA
modifications: 2'-F all C and U
On to B1, for which the Kd in the data set with IFN-gamma [1] was found to be 3.2 nM.

B2: IFN-gamma 2'F-28 (ssRNA)
RNA: GGGAGGACGAUGCGGAGGGUUGGGAGGGGUCCUUCUUUUCGUCUGCGUGGACCGUCAGACGACUCGCCCGA
modifications: 2'-F all C and U
For the molecule B2, the dissociation constant (Kd) in the data set with IFN-gamma [2] was 35 nM.

B3: IFN-gamma 2'F-16 (ssRNA)
RNA: GGGAGGACGAUGCGGCAUCCCUAGAGCAGCCAGCCGGAAAGAAGUCACGCCUGCUCAGACGACUCGCCCGA
modifications: 2'-F all C and U
In the case of B3, in the data set with IFN-gamma [3], the Kd was 9.3 nM.

B4: IFN-gamma 2'NH2-17 truncate (ssRNA)
RNA: GGGAGGACGAUGCGGUGGUAGCGCGAUAUAGCGCUGGUAGGGUUGCCGGUG
modifications: 2'-NH2 all C and U
B4: in the data set with IFN-gamma [4], the Kd was 12.4 nM.

B5: TNF 25A (ssRNA)
RNA: GGGAGCUCAGAAUAAACGCUCAAGGCCGCAUGCCCCUCCUAACAGCAUGCAACUUCGACAUGAGGCCCGGAUCCGGC
In turn, B5 came in with a Kd in the data set with TNF-alpha [5] of 40 nM. In the data set with TNF-alpha [6], this molecule displayed a Ki of 21 nM.

B6: IL-4 2'F-9 (ssRNA)
RNA: GGGAGACAAGAAUAAACGCUCAAACGGCUGUAACAAACAAGGUGGGGGGCCACACAGAGCGGGUUCGACUUCGACAGGAGGCUCACAACAGGC
modifications: 2'-F all C and U
In the data set with IL-4 [7], B6 registered a Kd of 14.7 nM.

B7: IFN-gamma 2'NH2-30 (ssRNA)
RNA: GGGAGGACGAUGCGGCAGGUAAUUACAUGAAGGUGGGUUAGGUACUUUCAGGGUCAGACGACUCGCCCGA
modifications: 2'-NH2 all C and U
B7 displayed an IC50 with IFN-gamma [8] of 10 nM. For the same molecule, in the data set with IFN-gamma [9], the equilibrium dissociation constant (Kd) came out at 2.7 nM.

B8: IL-4 2'NH2-29 truncate (ssRNA)
RNA: GGGACGCUCAAGAGCUGGUGAGCCACGUAUACGGCCUUAGGGGCUUGGGCG
modifications: 2'-NH2 all C and U
As to B8, in the data set with IL-4 [10], the affinity, expressed as Kd, was 10 nM.

B9: IL-4 2'F/NH2-9 (ssRNA)
RNA: GGGAGACAAGAAUAAACGCUCAAAGAGUGCAGGUCUGGGGCGCCACAAUUACAACGGCAAUAAUUCGACAGGAGGCUCACAACAGGC
modifications: 2'-F all C, 2'-NH2 all U
Consider B9, for which the Kd in the data set with IL-4 [11] was determined as 3.3 nM. The molecule also returned an IC50 in the data set with IL-4 [12] of around 40 nM.

B10: IFN-gamma 2'F-1 truncate (ssRNA)
RNA: GGGAGGACGAUGCGGACACCGUUAAUCUGAGGCCCUGUCCUAUUCCUUCACGCCUCAGA
modifications: 2'-F all C and U
Consider B10, for which the Kd with IFN-gamma [13] stood at 4.4 nM.

B11: IFN-gamma 2'NH2-17 (ssRNA)
RNA: GGGAGGACGAUGCGGUGGUAGCGCGAUAUAGCGCUGGUAGGGUUGCCGGUGAUCAGACGACUCGCCCGA
modifications: 2'-NH2 all C and U
Take B11: the equilibrium dissociation constant (Kd) with IFN-gamma [14] was determined as 1.8 nM.

B12: TNF 8C (ssRNA)
RNA: GGGAGCUCAGAAUAAACGCUCAAGUCCACACUUUGCCGAGCGUCCUAGUGUUCGACAUGAGGCCCGGAUCCGGC
For the molecule B12, in the data set with TNF-alpha [15], the dissociation constant Kd stood at 430 nM.

B13: TNF 12A (ssRNA)
RNA: GGGAGCUCAGAAUAAACGCUCAACUUCUUGGCCCCGUCUCAAUGUCCGUACUUCUUCGACAUGAGGCCCGGAUCCGGC
For B13, in the data set with TNF-alpha [16], the Kd is above 1000 nM.

B14: IFN-gamma 2'F-27 (ssRNA)
RNA: GGGAGGACGAUGCGGAACACCCCCGGUCUGACGCUUGUUCCGAAUUCCUCCACCGUCAGACGACUCGCCCGA
modifications: 2'-F all C and U
For B14, the dissociation constant (Kd) with IFN-gamma [17] stood at 8.8 nM.

B15: IFN-gamma 2'F-1 (ssRNA)
RNA: GGGAGGACGAUGCGGACACCGUUAAUCUGAGGCCCUGUCCUAUUCCUUCACGCCUCAGACGACUCGCCCGA
modifications: 2'-F all C and U
Turning to B15, the Kd with IFN-gamma [18] was found to be 6.8 nM.

B16: IL-10 ligand 43 (ssRNA)
RNA: GGGAGACAAGAAUAAACGCUCAAACAUCGUAUAACUCUAAGGGCCUGGAUAUACGAUGAAUUCGACAGGAGGCUCACAACAGGC
modifications: 2'-F all C and U
As to B16, the binding result with IL-4 [19] and with IFN-gamma [20] was “no binding” throughout. Also, the equilibrium dissociation constant (Kd) in the data set with IL-10 was found to be 213 nM.

B17: TNF 18C (ssRNA)
RNA: GGGAGCUCAGAAUAAACGCUCAAUGUCGAGUGCGAUGGAGGAGUAGGGAUGCAUUCGACAUGAGGCCCGGAUCCGGC
Molecule B17 yielded a Kd with TNF-alpha [21] of 460 nM. Also, in the data set with TNF-alpha [22], affinity was put at a Ki of 2500 nM.

GGGAAACGGCUGUAACAAACAAGGUGGGGGGCCACACA (ssRNA, 2'-F all C and U) [IL-4 2'F-9 truncate]: the affinity with IL-4 [10], expressed as Kd, was 18 nM.

The term Kd denotes the concentration at which binding is half-saturated. Broadly, the Ki is a dissociation constant, usually derived from enzyme kinetics or from competition with a known ligand. A lower Ki goes with tighter binding. One may read the IC50 as the concentration at which inhibition is half-maximal.
